Reference: patent US20240262919A1 (SHANGHAITECH UNIVERSITY, published 2024)

Key:
mouse IL-18Rβ = biological target: T1, mouse IL-18Rβ (mouse, UniProt Q9Z2B1 20-356, limits assumed); assay: SPR (Table 5 title), Fab on mouse receptor
T1 construct: also called Mouse receptor; mouse ortholog
T1 sequence (looked up): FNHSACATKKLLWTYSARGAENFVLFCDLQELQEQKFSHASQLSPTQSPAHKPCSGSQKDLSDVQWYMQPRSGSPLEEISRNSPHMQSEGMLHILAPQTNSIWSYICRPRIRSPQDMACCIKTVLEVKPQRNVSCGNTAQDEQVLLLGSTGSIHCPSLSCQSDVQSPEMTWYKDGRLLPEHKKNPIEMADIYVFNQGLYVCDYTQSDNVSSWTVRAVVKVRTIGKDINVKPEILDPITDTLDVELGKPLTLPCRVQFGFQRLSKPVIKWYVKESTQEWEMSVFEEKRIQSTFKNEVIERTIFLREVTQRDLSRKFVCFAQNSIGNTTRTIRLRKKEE

[1] = biological target: T2, human IL-18Rβ ECD Fc fusion (118-AP-100, R&D Systems) (human, UniProt O95256 20-356); assay: SPR (Table 5 title), Fab on human receptor
T2 construct: Bought protein; also called hIL-18Rβ; recombinant human IL-18Rb; not shown: Fc tag of the bought fusion protein, not described
T2 sequence: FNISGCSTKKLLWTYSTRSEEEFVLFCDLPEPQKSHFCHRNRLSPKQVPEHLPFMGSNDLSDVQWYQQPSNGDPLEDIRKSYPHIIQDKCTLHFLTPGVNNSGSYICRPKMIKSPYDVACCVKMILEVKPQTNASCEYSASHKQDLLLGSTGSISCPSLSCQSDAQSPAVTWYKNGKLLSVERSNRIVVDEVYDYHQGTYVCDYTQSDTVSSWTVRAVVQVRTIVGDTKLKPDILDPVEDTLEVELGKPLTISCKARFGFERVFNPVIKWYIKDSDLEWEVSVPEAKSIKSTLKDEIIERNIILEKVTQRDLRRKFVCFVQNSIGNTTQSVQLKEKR

[2] = biological target: T2, human IL-18Rβ ECD Fc fusion …; assay: direct binding ELISA on immobilised human IL-18Rβ, OD 450 against concentration; panel title and axes say IgG, the key and legend paragraph 36 say Fab
[3] = biological target: T2, human IL-18Rβ ECD Fc fusion …; assay: multipoint direct binding ELISA (drawn table, column EC50 (nM))
[4] = biological target: T2, human IL-18Rβ ECD Fc fusion …; assay: biolayer interferometry (BLI) after legend paragraph 36; drawn table, head ka (10^4 M^-1 s^-1), Human receptor
[5] = biological target: T2, human IL-18Rβ ECD Fc fusion …; assay: competitive ELISA: signal on immobilised receptor after incubation with a two-fold dilution series of soluble hIL-18Rβ; the concentration axis is the soluble receptor; y axis printed 'Inhibition (%)'
[6] = biological target: T2, human IL-18Rβ ECD Fc fusion …; assay: competitive binding ELISA with soluble receptor (drawn table, column IC50 (nM))
[7] = biological target: T2, human IL-18Rβ ECD Fc fusion …; assay: biolayer interferometry (BLI) after legend paragraph 36; drawn table, head kd (10^-4 s^-1), Human receptor
[8] = biological target: T2, human IL-18Rβ ECD Fc fusion …; assay: biolayer interferometry (BLI) after legend paragraph 36; drawn table, head KD (nM), Human receptor
[9] = biological target: T3, human IL-18Rα ECD Fc fusion (816-LR-100; R&D Systems) (human, UniProt Q13478 22-329); assay: direct binding ELISA on immobilised human IL-18Rα (target after legend paragraph 36 and the table of panel C), OD 450 against concentration; panel title and axes say IgG, the key and legend say Fab
T3 construct: extracellular domain; Bought protein; also called Human receptor; not shown: Fc tag of the bought fusion protein, not described
T3 sequence (looked up): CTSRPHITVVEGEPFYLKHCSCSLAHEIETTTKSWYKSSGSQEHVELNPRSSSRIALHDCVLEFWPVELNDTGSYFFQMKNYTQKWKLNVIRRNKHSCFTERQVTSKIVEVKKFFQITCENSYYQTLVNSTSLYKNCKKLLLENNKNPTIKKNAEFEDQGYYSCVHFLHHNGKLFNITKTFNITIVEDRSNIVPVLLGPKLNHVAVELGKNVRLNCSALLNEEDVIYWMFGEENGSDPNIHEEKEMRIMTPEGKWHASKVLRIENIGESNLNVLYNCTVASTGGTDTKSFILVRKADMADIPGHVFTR

[10] = biological target: T3, human IL-18Rα ECD Fc fusion …; assay: competitive ELISA with a dilution series of soluble receptor; the axis is printed 'Soluble hIL18Rβ concentration (nM)', but legend paragraph 36 and the table of panel C give IL-18Rα for this trace; the competitor is the immobilised receptor; y axis printed 'Inhibition (%)'
[11] = biological target: T3, human IL-18Rα ECD Fc fusion …; assay: competitive binding ELISA with soluble receptor (drawn table, column IC50 (nM)); the cell equals that of row A3
[12] = biological target: T3, human IL-18Rα ECD Fc fusion …; assay: multipoint direct binding ELISA (drawn table, column EC50 (nM)); the cell equals that of row A3
[13] = biological target: T3, human IL-18Rα ECD Fc fusion …; assay: SPR, Fab on human receptor
Rhesus IL-18Rβ [14] = biological target: T4, Rhesus IL-18Rβ (rhesus, UniProt F7HHC1 20-356); assay: multipoint direct binding ELISA
T4 construct: also called rhesus IL-18 receptor beta; monkey IL-18Rβ
T4 sequence: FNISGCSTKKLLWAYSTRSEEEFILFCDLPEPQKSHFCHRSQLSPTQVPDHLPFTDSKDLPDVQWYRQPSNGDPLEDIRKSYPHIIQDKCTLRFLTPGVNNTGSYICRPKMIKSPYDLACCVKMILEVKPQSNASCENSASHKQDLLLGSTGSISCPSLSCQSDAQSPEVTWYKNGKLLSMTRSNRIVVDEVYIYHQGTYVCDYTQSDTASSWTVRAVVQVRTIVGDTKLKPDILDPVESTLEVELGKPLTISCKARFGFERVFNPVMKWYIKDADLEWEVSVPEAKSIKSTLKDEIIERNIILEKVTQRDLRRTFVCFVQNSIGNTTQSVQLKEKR

Rhesus IL-18Rβ [15] = biological target: T4, Rhesus IL-18Rβ; assay: SPR

B1: Fab 3144 (Fab)
heavy: EVQLVESGGGLVQPGGSLRLSCAASGFNLSYYSIHWVRQAPGKGLEWVASIYSYSGYTSYADSVKGRFTISADTSKNTAYLQMNSLRAEDTAVYYCARSSAMDYWGQGTLVTVSSASTKGPSVFPLAPSSKSTSGGTAALGCLVKDYFPEPVTVSWNSGALTSGVHTFPAVLQSSGLYSLSSVVTVPSSSLGTQTYICNVNHKPSNTKVDKKVEPKSCDKTHT
light: DIQMTQSPSSLSASVGDRVTITCRASQSVSSAVAWYQQKPGKAPKLLIYSASSLYSGVPSRFSGSRSGTDFTLTISSLQPEDFATYYCQQHWWGYPLITFGQGTKVEIKRTVAAPSVFIFPPSDSQLKSGTASVVCLLNNFYPREAKVQWKVDNALQSGNSQESVTEQDSKDSTYSLSSTLTLSKADYEKHKVYACEVTHQGLSSPVTKSFNRGECGGSDYKDDDDK
notes: also called F3144
Kd (mouse IL-18Rβ): 12.9 nM
koff (mouse IL-18Rβ): 0.0012 s⁻¹
kon (mouse IL-18Rβ): 93000 M⁻¹ s⁻¹
Kd [1]: 1.8 nM
koff [1]: 0.00058 s⁻¹
kon [1]: 320000 M⁻¹ s⁻¹
EC50 (read off the curve) [2]: ~0.4 nM
EC50 [3]: 16 nM
kon [4]: 170000 M⁻¹ s⁻¹
IC50 (read off the curve) [5]: ~2 nM
IC50 [6]: 19 nM
koff [7]: 0.0011 s⁻¹
Kd [8]: 6.4 nM

B2: Fab 3131 (Fab)
heavy: EVQLVESGGGLVQPGGSLRLSCAASGFNLYYSSMHWVRQAPGKGLEWVASIYSSYGYTYYADSVKGRFTISADTSKNTAYLQMNSLRAEDTAVYYCARSSFSHGYGWYGLDYWGQGTLVTVSSASTKGPSVFPLAPSSKSTSGGTAALGCLVKDYFPEPVTVSWNSGALTSGVHTFPAVLQSSGLYSLSSVVTVPSSSLGTQTYICNVNHKPSNTKVDKKVEPKSCDKTHT
light: DIQMTQSPSSLSASVGDRVTITCRASQSVSSAVAWYQQKPGKAPKLLIYSASSLYSGVPSRFSGSRSGTDFTLTISSLQPEDFATYYCQQYGYHYAGLITFGQGTKVEIKRTVAAPSVFIFPPSDSQLKSGTASVVCLLNNFYPREAKVQWKVDNALQSGNSQESVTEQDSKDSTYSLSSTLTLSKADYEKHKVYACEVTHQGLSSPVTKSFNRGECGGSDYKDDDDK
notes: also called F3131
Kd (mouse IL-18Rβ): 5.2 nM
koff (mouse IL-18Rβ): 0.00062 s⁻¹
kon (mouse IL-18Rβ): 120000 M⁻¹ s⁻¹
Kd [1]: 6.2 nM
koff [1]: 0.00127 s⁻¹
kon [1]: 210000 M⁻¹ s⁻¹
EC50 (read off the curve) [2]: ~0.3 nM
EC50 [3]: 16 nM
kon [4]: 210000 M⁻¹ s⁻¹
IC50 (read off the curve) [5]: 1 to 2 nM
IC50 [6]: 82 nM
koff [7]: 0.0013 s⁻¹
Kd [8]: 6.1 nM

B3: Fab 3132 (Fab)
heavy: EVQLVESGGGLVQPGGSLRLSCAASGFNISYYYIHWVRQAPGKGLEWVASIYSYSGYTSYADSVKGRFTISADTSKNTAYLQMNSLRAEDTAVYYCARASAMDYWGQGTLVTVSSASTKGPSVFPLAPSSKSTSGGTAALGCLVKDYFPEPVTVSWNSGALTSGVHTFPAVLQSSGLYSLSSVVTVPSSSLGTQTYICNVNHKPSNTKVDKKVEPKSCDKTHT
light: DIQMTQSPSSLSASVGDRVTITCRASQSVSSAVAWYQQKPGKAPKLLIYSASSLYSGVPSRFSGSRSGTDFTLTISSLQPEDFATYYCQQHWWASVPPFTFGQGTKVEIKRTVAAPSVFIFPPSDSQLKSGTASVVCLLNNFYPREAKVQWKVDNALQSGNSQESVTEQDSKDSTYSLSSTLTLSKADYEKHKVYACEVTHQGLSSPVTKSFNRGECGGSDYKDDDDK
notes: also called F3132
EC50 (read off the curve) [2]: ~0.5 nM
EC50 [3]: 33 nM
kon [4]: 10000 M⁻¹ s⁻¹
IC50 (read off the curve) [5]: ~9 nM
IC50 [6]: 74 nM
koff [7]: 0.0013 s⁻¹
Kd [8]: 133 nM

B4: Fab 12 (Fab)
heavy: EVQLVESGGGLVQPGGSLRLSCAASGFNISSSSIHWVRQAPGKGLEWVASISPSYSSTYYADSVKGRFTISADTSKNTAYLQMNSLRAEDTAVYYCARGAFDYWGQGTLVTVSSASTKGPSVFPLAPSSKSTSGGTAALGCLVKDYFPEPVTVSWNSGALTSGVHTFPAVLQSSGLYSLSSVVTVPSSSLGTQTYICNVNHKPSNTKVDKKVEPKSCDKTHT
light: DIQMTQSPSSLSASVGDRVTITCRASQSVSSAVAWYQQKPGKAPKLLIYSASSLYSGVPSRFSGSRSGTDFTLTISSLQPEDFATYYCQQYWHPFTFGQGTKVEIKRTVAAPSVFIFPPSDSQLKSGTASVVCLLNNFYPREAKVQWKVDNALQSGNSQESVTEQDSKDSTYSLSSTLTLSKADYEKHKVYACEVTHQGLSSPVTKSFNRGECGGSDYKDDDDK
notes: Anti-IL-18Rα Fab; also called F12
EC50 (read off the curve) [9]: ~0.8 nM
IC50 (read off the curve) [10]: ~20 nM
IC50 [11]: 105 nM
EC50 [12]: 86 nM
Kd [13]: 1.9 nM
koff [13]: 0.0002 s⁻¹
kon [13]: 110000 M⁻¹ s⁻¹

B5: IgG 3131 (antibody, V domains shown)
VH: EVQLVESGGGLVQPGGSLRLSCAASGFNLYYSSMHWVRQAPGKGLEWVASIYSSYGYTYYADSVKGRFTISADTSKNTAYLQMNSLRAEDTAVYYCARSSFSHGYGWYGLDYWGQGTLVTVSS
VL: DIQMTQSPSSLSASVGDRVTITCRASQSVSSAVAWYQQKPGKAPKLLIYSASSLYSGVPSRFSGSRSGTDFTLTISSLQPEDFATYYCQQYGYHYAGLITFGQGTKVEIKR
notes: IgG made by sub-cloning the Fab CDR regions into IgG expression constructs; VL-CL with FLAG tag; also called I3131
EC50 (Rhesus IL-18Rβ [14]): 11.5 nM
Kd (Rhesus IL-18Rβ [15]): 3.9 nM
koff (Rhesus IL-18Rβ [15]): 0.00015 s⁻¹
kon (Rhesus IL-18Rβ [15]): 38000 M⁻¹ s⁻¹
